This is an account of results in US20230190925A1 (CENTRE NATIONAL DE LA RECHERCHE SCIENTIFIQUE CNRS, published 2023).

In assay [1] the target is T1, empty phage T5 capsid, undecorated, produced from the mutant phage T5stAmN5-Δdec (UniProt Q6QGD8 160-458; Q6QGD5 11-403).
T1 chain 1: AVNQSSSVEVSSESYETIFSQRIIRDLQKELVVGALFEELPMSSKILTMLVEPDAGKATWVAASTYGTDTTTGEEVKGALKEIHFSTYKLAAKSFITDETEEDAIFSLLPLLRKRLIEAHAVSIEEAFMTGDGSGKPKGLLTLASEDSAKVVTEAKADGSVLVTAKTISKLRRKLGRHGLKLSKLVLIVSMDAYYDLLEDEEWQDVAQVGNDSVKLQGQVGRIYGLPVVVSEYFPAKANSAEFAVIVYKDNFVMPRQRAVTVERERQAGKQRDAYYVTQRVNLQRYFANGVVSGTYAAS
T1 chain 2: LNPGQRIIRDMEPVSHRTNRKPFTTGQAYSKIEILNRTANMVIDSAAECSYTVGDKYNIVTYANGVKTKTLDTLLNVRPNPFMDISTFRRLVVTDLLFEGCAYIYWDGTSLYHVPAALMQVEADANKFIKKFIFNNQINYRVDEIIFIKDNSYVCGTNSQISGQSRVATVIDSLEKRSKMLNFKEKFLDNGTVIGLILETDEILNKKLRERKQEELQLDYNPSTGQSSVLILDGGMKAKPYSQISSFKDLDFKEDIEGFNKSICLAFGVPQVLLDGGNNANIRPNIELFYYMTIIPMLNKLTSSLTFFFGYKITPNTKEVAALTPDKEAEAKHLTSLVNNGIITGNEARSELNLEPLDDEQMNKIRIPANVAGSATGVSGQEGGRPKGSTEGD
In words: SPR; 25 °C. On the technique in general: Surface plasmon resonance follows binding to a sensor surface in real time, without labels.

The target of assay [2] is T2, recombinant phage T5 capsid produced from plasmid pETcapT5Δdec (assembled in the absence of pb10) (bacteriophage T5, UniProt Q6QGD8 160-458; Q6QGD5 11-403).
T2 construct: also called capsids produced from the plasmid pETcapT5Δdec; pETcapT5Δpb10 capsids
T2 sequence 1: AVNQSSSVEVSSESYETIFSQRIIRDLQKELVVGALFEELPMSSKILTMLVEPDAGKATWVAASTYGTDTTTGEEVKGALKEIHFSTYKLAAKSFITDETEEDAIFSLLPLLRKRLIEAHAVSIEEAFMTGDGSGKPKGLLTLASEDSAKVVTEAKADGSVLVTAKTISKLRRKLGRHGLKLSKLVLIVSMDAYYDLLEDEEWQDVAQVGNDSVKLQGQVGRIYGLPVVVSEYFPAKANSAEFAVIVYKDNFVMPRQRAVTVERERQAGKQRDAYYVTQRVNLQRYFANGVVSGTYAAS
T2 sequence 2: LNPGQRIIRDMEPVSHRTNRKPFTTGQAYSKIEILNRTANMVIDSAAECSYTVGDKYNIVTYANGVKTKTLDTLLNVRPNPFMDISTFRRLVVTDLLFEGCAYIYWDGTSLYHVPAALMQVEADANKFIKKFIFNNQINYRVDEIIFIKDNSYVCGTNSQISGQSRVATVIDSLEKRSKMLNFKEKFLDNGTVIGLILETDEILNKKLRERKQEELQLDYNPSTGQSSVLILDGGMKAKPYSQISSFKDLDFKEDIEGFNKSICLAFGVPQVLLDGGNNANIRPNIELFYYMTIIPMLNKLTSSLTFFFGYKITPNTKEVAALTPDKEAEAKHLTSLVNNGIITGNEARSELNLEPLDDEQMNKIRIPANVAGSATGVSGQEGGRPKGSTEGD
The assay can be described thus: native agarose gel retardation.

Assay [3] concerns the target T1, empty phage T5 capsid, undecorated, …. The assay can be described thus: SPR.
Assay [4] addresses T3, empty phage T5 capsid, undecorated, produced from the mutant phage T5stAmN5-Δdec (bacteriophage T5, UniProt Q6QGD8 160-458; Q6QGD5 11-403).
T3 construct: devoid of DNA and of pb10, expanded form; also called empty capsids; pure empty capsids
T3 sequence 1: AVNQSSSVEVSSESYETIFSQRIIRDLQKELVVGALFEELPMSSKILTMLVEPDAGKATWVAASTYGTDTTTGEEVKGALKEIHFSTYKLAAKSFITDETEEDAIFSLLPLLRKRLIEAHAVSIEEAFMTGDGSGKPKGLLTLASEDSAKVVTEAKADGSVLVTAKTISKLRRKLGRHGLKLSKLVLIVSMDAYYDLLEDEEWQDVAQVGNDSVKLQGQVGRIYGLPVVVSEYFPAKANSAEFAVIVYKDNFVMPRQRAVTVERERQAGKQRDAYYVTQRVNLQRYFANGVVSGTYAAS
T3 sequence 2: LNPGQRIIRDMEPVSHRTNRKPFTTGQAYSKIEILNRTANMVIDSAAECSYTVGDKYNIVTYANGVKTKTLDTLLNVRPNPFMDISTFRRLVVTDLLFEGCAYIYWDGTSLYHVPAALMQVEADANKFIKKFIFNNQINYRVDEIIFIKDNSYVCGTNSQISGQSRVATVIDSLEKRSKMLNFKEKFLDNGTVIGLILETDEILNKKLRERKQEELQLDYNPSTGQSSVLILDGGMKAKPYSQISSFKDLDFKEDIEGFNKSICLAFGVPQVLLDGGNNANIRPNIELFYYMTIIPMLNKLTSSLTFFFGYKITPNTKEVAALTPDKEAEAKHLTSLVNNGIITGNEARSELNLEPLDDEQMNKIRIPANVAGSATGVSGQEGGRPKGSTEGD
In words: native agarose gel retardation, [protein]/[binding sites on the capsid] = 1+/-0.1.

B1: pb10-OVAH6 (whole protein pb10 fused with ovalbumin, His-tagged) (other)
chain: MGIDYSGLRTIFGEKLPESHIFFATVAAHKYVPSYAFLRRELGLSSAHTNRKVWKKFVEAYGKAIPPAPPAPPLTLSKDLTASMSVEEGAALTLSVTATGGTGPYTYAWTKDGSPIPDASGATYTKPTAAAEDAGSYKVTVTDSKQVSKDSTTCAVTVNPTVPGGMGSIGAASMEFCFDVFKELKVHHANENIFYCPIAIMSALAMVYLGAKDSTRTQINKVVRFDKLPGFGDSIEAQCGTSVNVHSSLRDILNQITKPNDVYSFSLASRLYAEERYPILPEYLQCVKELYRGGLEPINFQTAADQARELINSWVESQTNGIIRNVLQPSSVDSQTAMVLVNAIVFKGLWEKAFKDEDTQAMPFRVTEQESKPVQMMYQIGLFRVASMASEKMKILELPFASGTMSMLVLLPDEVSGLEQLESIINFEKLTEWTSSNVMEERKIKVYLPRMKMEEKYNLTSVLMAMGITDVFSSSANLSGISSAESLKISQAVHAAHAEINEAGREVVGSAEAGVDAASVSEEFRADHPFLFCIKHIATNAVLFFGRCVSP
As usually defined, the Kd is the equilibrium constant for the complex coming apart. A lower Kd goes with a tighter complex. In turn, B1 had a Kd in assay [1] of 2.34 pM.

B2: pb10N-Ter-OVAH6 (N-terminal domain of pb10 fused with ovalbumin, His-tagged) (other)
chain: MGIDYSGLRTIFGEKLPESHIFFATVAAHKYVPSYAFLRRELGLSSAHTNRKVWKKFVEAYGKAIPPAPPAPPMGSIGAASMEFCFDVFKELKVHHANENIFYCPIAIMSALAMVYLGAKDSTRTQINKVVRFDKLPGFGDSIEAQCGTSVNVHSSLRDILNQITKPNDVYSFSLASRLYAEERYPILPEYLQCVKELYRGGLEPINFQTAADQARELINSWVESQTNGIIRNVLQPSSVDSQTAMVLVNAIVFKGLWEKAFKDEDTQAMPFRVTEQESKPVQMMYQIGLFRVASMASEKMKILELPFASGTMSMLVLLPDEVSGLEQLESIINFEKLTEWTSSNVMEERKIKVYLPRMKMEEKYNLTSVLMAMGITDVFSSSANLSGISSAESLKISQAVHAAHAEINEAGREVVGSAEAGVDAASVSEEFRADHPFLFCIKHIATNAVLFFGRCVSP
B2 displayed a Kd in assay [1] of 1.22 pM.

B3: decoration protein pb10 of phage T5 (other)
chain: MGIDYSGLRTIFGEKLPESHIFFATVAAHKYVPSYAFLRRELGLSSAHTNRKVWKKFVEAYGKAIPPAPPAPPLTLSKDLTASMSVEEGAALTLSVTATGGTGPYTYAWTKDGSPIPDASGATYTKPTAAAEDAGSYKVTVTDSKQVSKDSTTCAVTVNPTVPGGLE
notes: Monomeric; also called native protein pb10; pb10 H6
Consider B3, for which the binding result in assay [2] and in assay [4] was “binds” throughout. The Kd in assay [3] is 1.11 pM; in assay [1], 2.25 pM.
